Measured values reported in the supplement of paper PMC5998384.

Tests used:
[1] = tested on: HeLa Kyoto; experiment: thermal stability score vs G1/S (z-score of summed log2 fold changes over temperatures); higher = more thermally stable than in G1/S
[2] = tested on: HeLa Kyoto; experiment: solubility in G1/S (NP-40 vs SDS abundance) (log2 ratio); higher = more soluble; conditions: cell cycle stage: G1/S
[3] = tested on: HeLa Kyoto; experiment: melting temperature (median over replicates), in situ; higher = more thermally stable
[4] = tested on: HeLa Kyoto; experiment: solubility change mitosis vs G1/S (difference of NP-40 vs SDS log2 ratios) (log2 ratio difference); higher = more soluble in mitosis
[5] = cell cycle stage: early G1 (4.5 h after nocodazole release)
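Wherever melting temperature (median over replicates), in situ is given: HeLa Kyoto cells synchronized by double thymidine or nocodazole block, proteins quantified by TMT10plex mass spectrometry, three independent biological replicates.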
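Wherever solubility change mitosis vs G1/S (difference of NP-40 vs SDS log2 ratios) is given: synchronized HeLa Kyoto cells (double thymidine block for G1/S, nocodazole release for mitosis), protein amounts in NP-40 versus SDS lysates quantified by mass spectrometry, three biological replicates.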
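Wherever solubility in G1/S (NP-40 vs SDS abundance) is given: HeLa Kyoto cells arrested at G1/S by double thymidine block, proteins quantified by TMT10plex mass spectrometry in mild NP-40 versus SDS extracts, three biological replicates.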
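Wherever thermal stability score vs G1/S (z-score of summed log2 fold changes over temperatures) is given: synchronized HeLa Kyoto cells, proteins quantified by TMT10plex mass spectrometry, three biological replicates, mitosis taken 0.5 h after nocodazole release, G1/S directly after double thymidine block.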

Substance | thermal stability score [1, 5] | thermal stability score ([1]; cell cycle stage: mitosis) | solubility in G1/S (log2) [2] | melting temperature ([3]; cell cycle stage: G1/S) [°C] | melting temperature ([3]; cell cycle stage: mitosis) [°C] | solubility change mitosis (log2) [4]
MAERKPNGGSGGASTSSSGTNLLFSSSATEFSFNVPFIPVTQASASPASLLLPGEDSTDVGEEDSFLGQTSIHTSAPQTFSYFSQVSSSSDPFGNIGQSPLTTAATSVGQSGFPKPLTALPFTTGSQDVSNAFSPSISKAQPGAPPSSLMGINSYLPSQPSSLPPSYFGNQPQGIPQPGYNPYRHTPGSSRANPYIAPPQLQQCQTPGPPAHPPPSGPPVQMYQMPPGSLPPVPSSVQSPAQQQVPARPGAPSVQVPSPFLLQNQYEPVQPHWFYCKEVEYKQLWMPFSVFDSLNLEEIYNSVQPDPESVVLGTDGGRYDVYLYDRIRKAAYWEEEPAEVRRCTWFYKGDTDSRFIPYTEEFSEKLEAEYKKAVTTNQWHRRLEFPSGETIVMHNPKVIVQFQPSSVPDEWGTTQDGQTRPRVVKRGIDDNLDEIPDGEMPQVDHLVFVVHGIGPVCDLRFRSIIECVDDFRVVSLKLLRTHFKKSLDDGKVSRVEFLPVHWHSSLGGDATGVDRNIKKITLPSIGRFRHFTNETLLDILFYNSPTYCQTIVEKVGMEINHLHALFMSRNPDFKGGVSVAGHSLGSLILFDILSNQKDLNLSKCPGPLAVANGVVKQLHFQEKQMPEEPKLTLDESYDLVVENKEVLTLQETLEALSLSEYFSTFEKEKIDMESLLMCTVDDLKEMGIPLGPRKKIANFVEHKAAKLKKAASEKKAVAATSTKGQEQSAQKTKDMASLPSESNEPKRKLPVGACVSSVCVNYESFEVGAGQVSVAYNSLDFEPEIFFALGSPIAMFLTIRGVDRIDENYSLPTCKGFFNIYHPLDPVAYRLEPMIVPDLDLKAVLIPHHKGRKRLHLELKESLSRMGSDLKQGFISSLKSAWQTLNEFARAHTSSTQLQEELEKVANQIKEEEEKQVVEAEKVVESPDFSKDEDYLGKVGMLNGGRRIDYVLQEKPIESFNEYLFALQSHLCYWESEDTALLLLKEIYRTMNISPEQPQH [SEC23IP] | -1.73 | -1.12 | 0.171 | 50.5 | 50.3 | -0.197
MGRTYIVEETVGQYLSNINLQGKAFVSGLLIGQCSSQKDYVILATRTPPKEEQSENLKHPKAKLDNLDEEWATEHACQVSRMLPGGLLVLGVFIITTLELANDFQNALRRLMFAVEKSINRKRLWNFTEEEVSERVTLHICASTKKIFCRTYDIHDPKSSARPADWKYQSGLSSSWLSLECTVHINIHIPLSATSVSYTLEKNTKNGLTRWAKEIENGVYLINGQVKDEDCDLLEGQKKSSRGNTQATSHSFDVRVLTQLLLNSDHRSTATVQICSGSVNLKGAVKCRAYIHSSKPKVKDAVQAVKRDILNTVADRCEMLFEDLLLNEIPEKKDSEKEFHVLPYRVFVPLPGSTVMLCDYKFDDESAEEIRDHFMEMLDHTIQIEDLEIAEETNTACMSSSMNSQASLDNTDDEQPKQPIKTTMLLKIQQNIGVIAAFTVAVLAAGISFHYFSD [ODR4] | 0.605 | 0.226 | -0.0468 | 50.6 | 51.1 | -0.0887
MAAPVDLELKKAFTELQAKVIDTQQKVKLADIQIEQLNRTKKHAHLTDTEIMTLVDETNMYEGVGRMFILQSKEAIHSQLLEKQKIAEEKIKELEQKKSYLERSVKEAEDNIREMLMARRAQ [PFDN1] | -5.42 | -7.79 | 0.242 | 52.9 | 52.4 | 0.291
MGLLDLCEEVFGTADLYRVLGVRREASDGEVRRGYHKVSLQVHPDRVGEGDKEDATRRFQILGKVYSVLSDREQRAVYDEQGTVDEDSPVLTQDRDWEAYWRLLFKKISLEDIQAFEKTYKGSEEELADIKQAYLDFKGDMDQIMESVLCVQYTEEPRIRNIIQQAIDAGEVPSYNAFVKESKQKMNARKRRAQEEAKEAEMSRKELGLDEGVDSLKAAIQSRQKDRQKEMDNFLAQMEAKYCKSSKGGGKKSALKKEKK [DNAJC9] | -3.62 | -5.66 | 0.502 | 52 | 51.8 | 0.21
MNAARTGYRVFSANSTAACTELAKRITERLGAELGKSVVYQETNGETRVEIKESVRGQDIFIIQTIPRDVNTAVMELLIMAYALKTACARNIIGVIPYFPYSKQSKMRKRGSIVCKLLASMLAKAGLTHIITMDLHQKEIQGFFSFPVDNLRASPFLLQYIQEEIPNYRNAVIVAKSPDAAKRAQSYAERLRLGLAVIHGEAQCTELDMDDGRHSPPMVKNATVHPGLELPLMMAKEKPPITVVGDVGGRIAIIVDDIIDDVESFVAAAEILKERGAYKIYVMATHGILSAEAPRLIEESSVDEVVVTNTVPHEVQKLQCPKIKTVDISLILSEAIRRIHNGESMAYLFRNITVDD [PRPSAP1] | -0.299 | -2.79 | 0.0529 | 55.6 | 54.6 | -0.211
MSGNGNAAATAEENSPKMRVIRVGTRKSQLARIQTDSVVATLKASYPGLQFEIIAMSTTGDKILDTALSKIGEKSLFTKELEHALEKNEVDLVVHSLKDLPTVLPPGFTIGAICKRENPHDAVVFHPKFVGKTLETLPEKSVVGTSSLRRAAQLQRKFPHLEFRSIRGNLNTRLRKLDEQQEFSAIILATAGLQRMGWHNRVGQILHPEECMYAVGQGALGVEVRAKDQDILDLVGVLHDPETLLRCIAERAFLRHLEGGCSVPVAVHTAMKDGQLYLTGGVWSLDGSDSIQETMQATIHVPAQHEDGPEDDPQLVGITARNIPRGPQLAAQNLGISLANLLLSKGAKNILDVARQLNDAH [HMBS] | -1.68 | -1.79 | 0.328 | 57.6 | 57.3 | -0.0671
MEPATAPRPDMAPELTPEEEQATKQFLEEINKWTVQYNVSPLSWNVAVKFLMARKFDVLRAIELFHSYRETRRKEGIVKLKPHEEPLRSEILSGKFTILNVRDPTGASIALFTARLHHPHKSVQHVVLQALFYLLDRAVDSFETQRNGLVFIYDMCGSNYANFELDLGKKVLNLLKGAFPARLKKVLIVGAPIWFRVPYSIISLLLKDKVRERIQILKTSEVTQHLPRECLPENLGGYVKIDLATWNFQFLPQVNGHPDPFDEIILFSLPPALDWDSVHVPGPHAMTIQELVDYVNARQKQGIYEEYEDIRRENPVGTFHCSMSPGNLEKNRYGDVPCLDQTRVKLTKRSGHTQTDYINASFMDGYKQKNAYIGTQGPLENTYRDFWLMVWEQKVLVIVMTTRFEEGGRRKCGQYWPLEKDSRIRFGFLTVTNLGVENMNHYKKTTLEIHNTEERQKRQVTHFQFLSWPDYGVPSSAASLIDFLRVVRNQQSLAVSNMGARSKGQCPEPPIVVHCSAGIGRTGTFCSLDICLAQLEELGTLNVFQTVSRMRTQRAFSIQTPEQYYFCYKAILEFAEKEGMVSSGQNLLAVESQ [PTPN9] | 1.02 | -0.717 | -0.0379 | 51.1 | 51.7 | -0.094
MWRVKKLSLSLSPSPQTGKPSMRTPLRELTLQPGALTNSGKRSPACSSLTPSLCKLGLQEGSNNSSPVDFVNNKRTDLSSEHFSHSSKWLETCQHESDEQPLDPIPQISSTPKTSEEAVDPLGNYMVKTIVLVPSPLGQQQDMIFEARLDTMAETNSISLNGPLRTDDLVREEVAPCMGDRFSEVAAVSEKPIFQESPSHLLEESPPNPCSEQLHCSKESLSSRTEAVREDLVPSESNAFLPSSVLWLSPSTALAADFRVNHVDPEEEIVEHGAMEEREMRFPTHPKESETEDQALVSSVEDILSTCLTPNLVEMESQEAPGPAVEDVGRILGSDTESWMSPLAWLEKGVNTSVMLENLRQSLSLPSMLRDAAIGTTPFSTCSVGTWFTPSAPQEKSTNTSQTGLVGTKHSTSETEQLLCGRPPDLTALSRHDLEDNLLSSLVILEVLSRQLRDWKSQLAVPHPETQDSSTQTDTSHSGITNKLQHLKESHEMGQALQQARNVMQSWVLISKELISLLHLSLLHLEEDKTTVSQESRRAETLVCCCFDLLKKLRAKLQSLKAEREEARHREEMALRGKDAAEIVLEAFCAHASQRISQLEQDLASMREFRGLLKDAQTQLVGLHAKQEELVQQTVSLTSTLQQDWRSMQLDYTTWTALLSRSRQLTEKLTVKSQQALQERDVAIEEKQEVSRVLEQVSAQLEECKGQTEQLELENSRLATDLRAQLQILANMDSQLKELQSQHTHCAQDLAMKDELLCQLTQSNEEQAAQWQKEEMALKHMQAELQQQQAVLAKEVRDLKETLEFADQENQVAHLELGQVECQLKTTLEVLRERSLQCENLKDTVENLTAKLASTIADNQEQDLEKTRQYSQKLGLLTEQLQSLTLFLQTKLKEKTEQETLLLSTACPPTQEHPLPNDRTFLGSILTAVADEEPESTPVPLLGSDKSAFTRVASMVSLQPAETPGMEESLAEMSIMTTELQSLCSLLQESKEEAIRTLQRKICELQARLQAQEEQHQEVQKAKEADIEKLNQALCLRYKNEKELQEVIQQQNEKILEQIDKSGELISLREEVTHLTRSLRRAETETKVLQEALAGQLDSNCQPMATNWIQEKVWLSQEVDKLRVMFLEMKNEKEKLMIKFQSHRNILEENLRRSDKELEKLDDIVQHIYKTLLSIPEVVRGCKELQGLLEFLS [SPAG5] | 0.87 | 2.82 | 0.306 | 48.2 | 48.4 | -0.134
MALVHKLLRGTYFLRKFSKPTSALYPFLGIRFAEYSSSLQKPVASPGKASSQRKTEGDLQGDHQKEVALDITSSEEKPDVSFDKAIRDEAIYHFRLLKDEIVDHWRGPEGHPLHEVLLEQAKVVWQFRGKEDLDKWTVTSDKTIGGRSEVFLKMGKNNQSALLYGTLSSEAPQDGESTRSGYCAMISRIPRGAFERKMSYDWSQFNTLYLRVRGDGRPWMVNIKEDTDFFQRTNQMYSYFMFTRGGPYWQEVKIPFSKFFFSNRGRIRDVQHELPLDKISSIGFTLADKVDGPFFLEIDFIGVFTDPAHTEEFAYENSPELNPRLFK [NDUFAF1] | 4.31 | 3.52 | 0.043 | 54.6 | 55.2 | -0.0281
PCM1 | -0.276 | 0.507 | -0.73 | 49.8 | 50.3 | 0.65
MKKQFNRMKQLANQTVGRAEKTEVLSEDLLQIERRLDTVRSICHHSHKRLVACFQGQHGTDAERRHKKLPLTALAQNMQEASTQLEDSLLGKMLETCGDAENQLALELSQHEVFVEKEIVDPLYGIAEVEIPNIQKQRKQLARLVLDWDSVRARWNQAHKSSGTNFQGLPSKIDTLKEEMDEAGNKVEQCKDQLAADMYNFMAKEGEYGKFFVTLLEAQADYHRKALAVLEKTLPEMRAHQDKWAEKPAFGTPLEEHLKRSGREIALPIEACVMLLLETGMKEEGLFRIGAGASKLKKLKAALDCSTSHLDEFYSDPHAVAGALKSYLRELPEPLMTFNLYEEWTQVASVQDQDKKLQDLWRTCQKLPPQNFVNFRYLIKFLAKLAQTSDVNKMTPSNIAIVLGPNLLWARNEGTLAEMAAATSVHVVAVIEPIIQHADWFFPEEVEFNVSEAFVPLTTPSSNHSFHTGNDSDSGTLERKRPASMAVMEGDLVKKESFGVKLMDFQAHRRGGTLNRKHISPAFQPPLPPTDGSTVVPAGPEPPPQSSRAESSSGGGTVPSSAGILEQGPSPGDGSPPKPKDPVSAAVPAPGRNNSQIASGQNQPQAAAGSHQLSMGQPHNAAGPSPHTLRRAVKKPAPAPPKPGNPPPGHPGGQSSSGTSQHPPSLSPKPPTRSPSPPTQHTGQPPGQPSAPSQLSAPRRYSSSLSPIQAPNHPPPQPPTQATPLMHTKPNSQGPPNPMALPSEHGLEQPSHTPPQTPTPPSTPPLGKQNPSLPAPQTLAGGNPETAQPHAGTLPRPRPVPKPRNRPSVPPPPQPPGVHSAGDSSLTNTAPTASKIVTDSNSRVSEPHRSIFPEMHSDSASKDVPGRILLDIDNDTESTAL [ARHGAP17] | 0.76 | 2.7 | 0.413 | 48.2 | 49.1 | -0.0286
